Results on ten proteins are retold here after article PMC5343618, “Multimer recognition and secretion by the non-classical secretion pathway in Bacillus subtilis” (Scientific Reports, 2017).

Sequences and labels used below:
B1: transaldolase (YwjH) (enzyme, B. subtilis 168, UniProt P19669 1-212, looked up)
chain: MLFFVDTANIDEIREANELGILAGVTTNPSLVAKEANVSFHDRLREITDVVKGSVSAEVISLKAEEMIEEGKELAKIAPNITVKIPMTSDGLKAVRALTDLGIKTNVTLIFNANQALLAARAGATYVSPFLGRLDDIGHNGLDLISEVKQIFDIHGLDTQIIAASIRHPQHVTEAALRGAHIGTMPLKVIHALTKHPLTDKGIEQFLADWNK
notes: transaldolase (YwjH), B. subtilis; gene amplified from B. subtilis 168 chromosomal DNA; source: B. subtilis 1A751, overexpressed from a pMAR-derived plasmid; cytoplasmic fraction and culture supernatant, not purified
B2: fructose 1,6-bisphosphate aldolase (FbaA) (enzyme, B. subtilis 168, UniProt P13243 1-285, looked up)
chain: MPLVSMTEMLNTAKEKGYAVGQFNLNNLEFTQAILQAAEEEKSPVILGVSEGAGRYMGGFKTVVAMVKALMEEYKVTVPVAIHLDHGSSFESCAKAIHAGFTSVMIDASHHPFEENVATTAKVVELAHFHGVSVEAELGTVGGQEDDVIAEGVIYADPKECQELVERTGIDCLAPALGSVHGPYKGEPNLGFKEMEEIGKSTGLPLVLHGGTGIPTADIKKSISLGTAKINVNTENQISSAKAVRETLAAKPDEYDPRKYLGPAREAIKETVIGKMREFGSSNQA
notes: fructose 1,6-bisphosphate aldolase (FbaA), B. subtilis; gene amplified from B. subtilis 168 chromosomal DNA; source: B. subtilis 1A751, overexpressed from a pMAR-derived plasmid; cytoplasmic fraction and culture supernatant, not purified
B3: superoxide dismutase (SodA) (enzyme, B. subtilis 168, UniProt P54375 1-202, looked up)
chain: MAYELPELPYAYDALEPHIDKETMTIHHTKHHNTYVTNLNKAVEGNTALANKSVEELVADLDSVPENIRTAVRNNGGGHANHKLFWTLLSPNGGGEPTGALAEEINSVFGSFDKFKEQFAAAAAGRFGSGWAWLVVNNGKLEITSTPNQDSPLSEGKTPILGLDVWEHAYYLNYQNRRPDYISAFWNVVNWDEVARLYSEAK
notes: superoxide dismutase (SodA), B. subtilis; gene amplified from B. subtilis 168 chromosomal DNA; source: B. subtilis 1A751, overexpressed from a pMAR-derived plasmid; cytoplasmic fraction and culture supernatant, not purified
B4: glyceraldehyde 3-phosphate dehydrogenase (GapA) (enzyme, B. subtilis 168, UniProt P09124 1-335, looked up)
chain: MAVKVGINGFGRIGRNVFRAALNNPEVEVVAVNDLTDANMLAHLLQYDSVHGKLDAEVSVDGNNLVVNGKTIEVSAERDPAKLSWGKQGVEIVVESTGFFTKRADAAKHLEAGAKKVIISAPANEEDITIVMGVNEDKYDAANHDVISNASCTTNCLAPFAKVLNDKFGIKRGMMTTVHSYTNDQQILDLPHKDYRRARAAAENIIPTSTGAAKAVSLVLPELKGKLNGGAMRVPTPNVSLVDLVAELNQEVTAEEVNAALKEAAEGDLKGILGYSEEPLVSGDYNGNKNSSTIDALSTMVMEGSMVKVISWYDNESGYSNRVVDLAAYIAKKGL
notes: glyceraldehyde 3-phosphate dehydrogenase (GapA), B. subtilis; gene amplified from B. subtilis 168 chromosomal DNA; source: B. subtilis 1A751, overexpressed from a pMAR-derived plasmid; cytoplasmic fraction and culture supernatant, not purified
B5: arginase (RocF) (enzyme, B. subtilis 168, UniProt P39138 1-296, looked up)
chain: MDKTISVIGMPMDLGQARRGVDMGPSAIRYAHLIERLSDMGYTVEDLGDIPINREKIKNDEELKNLNSVLAGNEKLAQKVNKVIEEKKFPLVLGGDHSIAIGTLAGTAKHYDNLGVIWYDAHGDLNTLETSPSGNIHGMPLAVSLGIGHESLVNLEGYAPKIKPENVVIIGARSLDEGERKYIKESGMKVYTMHEIDRLGMTKVIEETLDYLSACDGVHLSLDLDGLDPNDAPGVGTPVVGGISYRESHLAMEMLYDAGIITSAEFVEVNPILDHKNKTGKTAVELVESLLGKKLL
notes: arginase (RocF), B. subtilis; gene amplified from B. subtilis 168 chromosomal DNA; source: B. subtilis 1A751, overexpressed from a pMAR-derived plasmid; cytoplasmic fraction and culture supernatant, not purified
B6: 1-pyrroline-5-carboxylate dehydrogenase (YcgN) (enzyme, B. subtilis 168, UniProt P94391 1-515, looked up)
chain: MTTPYKHEPFTNFQDQNNVEAFKKALATVSEYLGKDYPLVINGERVETEAKIVSINPADKEEVVGRVSKASQEHAEQAIQAAAKAFEEWRYTSPEERAAVLFRAAAKVRRRKHEFSALLVKEAGKPWNEADADTAEAIDFMEYYARQMIELAKGKPVNSREGEKNQYVYTPTGVTVVIPPWNFLFAIMAGTTVAPIVTGNTVVLKPASATPVIAAKFVEVLEESGLPKGVVNFVPGSGAEVGDYLVDHPKTSLITFTGSREVGTRIFERAAKVQPGQQHLKRVIAEMGGKDTVVVDEDADIELAAQSIFTSAFGFAGQKCSAGSRAVVHEKVYDQVLERVIEITESKVTAKPDSADVYMGPVIDQGSYDKIMSYIEIGKQEGRLVSGGTGDDSKGYFIKPTIFADLDPKARLMQEEIFGPVVAFCKVSDFDEALEVANNTEYGLTGAVITNNRKHIERAKQEFHVGNLYFNRNCTGAIVGYHPFGGFKMSGTDSKAGGPDYLALHMQAKTISEMF
notes: 1-pyrroline-5-carboxylate dehydrogenase (YcgN), B. subtilis; gene amplified from B. subtilis 168 chromosomal DNA; source: B. subtilis 1A751, overexpressed from a pMAR-derived plasmid; cytoplasmic fraction and culture supernatant, not purified
B7: molecular chaperone (GroEL) (natural protein, B. subtilis 168, UniProt P28598 1-544, looked up)
chain: MAKEIKFSEEARRAMLRGVDALADAVKVTLGPKGRNVVLEKKFGSPLITNDGVTIAKEIELEDAFENMGAKLVAEVASKTNDVAGDGTTTATVLAQAMIREGLKNVTAGANPVGVRKGMEQAVAVAIENLKEISKPIEGKESIAQVAAISAADEEVGSLIAEAMERVGNDGVITIEESKGFTTELEVVEGMQFDRGYASPYMVTDSDKMEAVLDNPYILITDKKITNIQEILPVLEQVVQQGKPLLLIAEDVEGEALATLVVNKLRGTFNAVAVKAPGFGDRRKAMLEDIAVLTGGEVITEDLGLDLKSTQIAQLGRASKVVVTKENTTIVEGAGETDKISARVTQIRAQVEETTSEFDREKLQERLAKLAGGVAVIKVGAATETELKERKLRIEDALNSTRAAVEEGIVSGGGTALVNVYNKVAAVEAEGDAQTGINIVLRALEEPIRQIAHNAGLEGSVIVERLKNEEIGVGFNAATGEWVNMIEKGIVDPTKVTRSALQNAASVAAMFLTTEAVVADKPEENGGGAGMPDMGGMGGMGGMM
notes: molecular chaperone GroEL, B. subtilis; gene amplified from B. subtilis 168 chromosomal DNA; source: B. subtilis 1A751, overexpressed from a pMAR-derived plasmid; cytoplasmic fraction and culture supernatant, not purified
B8: vegetative catalase (KatA) (enzyme, B. subtilis 168, UniProt P26901 1-483, looked up)
chain: MSSNKLTTSWGAPVGDNQNSMTAGSRGPTLIQDVHLLEKLAHFNRERVPERVVHAKGAGAHGYFEVTNDVTKYTKAAFLSEVGKRTPLFIRFSTVAGELGSADTVRDPRGFAVKFYTEEGNYDIVGNNTPVFFIRDAIKFPDFIHTQKRDPKTHLKNPTAVWDFWSLSPESLHQVTILMSDRGIPATLRHMHGFGSHTFKWTNAEGEGVWIKYHFKTEQGVKNLDVNTAAKIAGENPDYHTEDLFNAIENGDYPAWKLYVQIMPLEDANTYRFDPFDVTKVWSQKDYPLIEVGRMVLDRNPENYFAEVEQATFSPGTLVPGIDVSPDKMLQGRLFAYHDAHRYRVGANHQALPINRARNKVNNYQRDGQMRFDDNGGGSVYYEPNSFGGPKESPEDKQAAYPVQGIADSVSYDHYDHYTQAGDLYRLMSEDERTRLVENIVNAMKPVEKEEIKLRQIEHFYKADPEYGKRVAEGLGLPIKKDS
notes: vegetative catalase (KatA), B. subtilis; gene amplified from B. subtilis 168 chromosomal DNA; source: B. subtilis 1A751, overexpressed from a pMAR-derived plasmid; cytoplasmic fraction and culture supernatant, not purified
B9: general stress protein (YceD) (natural protein, B. subtilis 168, UniProt P80875 1-193, looked up)
chain: MTISLAKGQKVDLTKTNPGLSKVVVGLGWDTNKYDGGHDFDLDSSVFLLDAAGKCASPNDFIFYNQLEGGNGSVVHSGDNLTGAGEGDDENVKVNLSAVPANIDKISFVITIHDAEARSQNFGQVSNAFVRIVNEETNEELIRYDLAEDFSIETAIIAGELYRHNGEWKFSAIGSGYQGGLARIATDYGLQVG
notes: general stress protein YceD, B. subtilis; gene amplified from B. subtilis 168 chromosomal DNA; Seen as monomer and as dimer; source: B. subtilis 1A751, overexpressed from a pMAR-derived plasmid; cytoplasmic fraction and culture supernatant, not purified
B10: pyruvate dehydrogenase PdhD (enzyme, B. subtilis 168, UniProt P21880 1-470, looked up)
chain: MVVGDFPIETDTLVIGAGPGGYVAAIRAAQLGQKVTVVEKATLGGVCLNVGCIPSKALINAGHRYENAKHSDDMGITAENVTVDFTKVQEWKASVVNKLTGGVAGLLKGNKVDVVKGEAYFVDSNSVRVMDENSAQTYTFKNAIIATGSRPIELPNFKYSERVLNSTGALALKEIPKKLVVIGGGYIGTELGTAYANFGTELVILEGGDEILPGFEKQMSSLVTRRLKKKGNVEIHTNAMAKGVEERPDGVTVTFEVKGEEKTVDADYVLITVGRRPNTDELGLEQVGIEMTDRGIVKTDKQCRTNVPNIYAIGDIIEGPPLAHKASYEGKIAAEAIAGEPAEIDYLGIPAVVFSEPELASVGYTEAQAKEEGLDIVAAKFPFAANGRALSLNETDGFMKLITRKEDGLVIGAQIAGASASDMISELSLAIEGGMTAEDIAMTIHAHPTLGEITMEAAEVAIGSPIHIVK
notes: pyruvate dehydrogenase PdhD, B. subtilis; gene amplified from B. subtilis 168 chromosomal DNA; source: B. subtilis 1A751, overexpressed from a pMAR-derived plasmid; cytoplasmic fraction and culture supernatant, not purified

As usually defined, the stoichiometry N is a count of units in the complex or per binding partner.

This series deals with the molecule itself. The series is described as follows: native gel or EMSA; blue native PAGE (BN-PAGE) of the soluble cytoplasmic fraction and the culture supernatant of B. subtilis after 24 h of cultivation; non-reducing sample buffer, Coomassie blue; mass estimated within ±15%.
As to B1, the “stoichiometry N” value is 7.

Regarding B2, the “stoichiometry N” value is 5.

As to B3, the “stoichiometry N” value was 2.

With B4, the “stoichiometry N” value was 3.

B5: the “stoichiometry N” value was 5.

Turning to B6, the “stoichiometry N” value was 4.

Turning to B7, the “stoichiometry N” value is 2.

Take B8: the “stoichiometry N” value was 4.

Consider B9, for which the “stoichiometry N” value was 2.

Consider B10, for which the “stoichiometry N” value was 2.
